Reference: patent US20230147657A1 (INSERM INSTITUT NATIONAL DE LA SANT ET DE LA RECHERCHE M …, published 2023)
Like-named read-outs stand apart in the source and are kept apart here.

T1: human CD45RC (human, UniProt P08575 26-1306)
T1 construct: Native protein on human blood leukocytes / PBMC / T cells of healthy volunteers; also called hCD45RC
T1 sequence: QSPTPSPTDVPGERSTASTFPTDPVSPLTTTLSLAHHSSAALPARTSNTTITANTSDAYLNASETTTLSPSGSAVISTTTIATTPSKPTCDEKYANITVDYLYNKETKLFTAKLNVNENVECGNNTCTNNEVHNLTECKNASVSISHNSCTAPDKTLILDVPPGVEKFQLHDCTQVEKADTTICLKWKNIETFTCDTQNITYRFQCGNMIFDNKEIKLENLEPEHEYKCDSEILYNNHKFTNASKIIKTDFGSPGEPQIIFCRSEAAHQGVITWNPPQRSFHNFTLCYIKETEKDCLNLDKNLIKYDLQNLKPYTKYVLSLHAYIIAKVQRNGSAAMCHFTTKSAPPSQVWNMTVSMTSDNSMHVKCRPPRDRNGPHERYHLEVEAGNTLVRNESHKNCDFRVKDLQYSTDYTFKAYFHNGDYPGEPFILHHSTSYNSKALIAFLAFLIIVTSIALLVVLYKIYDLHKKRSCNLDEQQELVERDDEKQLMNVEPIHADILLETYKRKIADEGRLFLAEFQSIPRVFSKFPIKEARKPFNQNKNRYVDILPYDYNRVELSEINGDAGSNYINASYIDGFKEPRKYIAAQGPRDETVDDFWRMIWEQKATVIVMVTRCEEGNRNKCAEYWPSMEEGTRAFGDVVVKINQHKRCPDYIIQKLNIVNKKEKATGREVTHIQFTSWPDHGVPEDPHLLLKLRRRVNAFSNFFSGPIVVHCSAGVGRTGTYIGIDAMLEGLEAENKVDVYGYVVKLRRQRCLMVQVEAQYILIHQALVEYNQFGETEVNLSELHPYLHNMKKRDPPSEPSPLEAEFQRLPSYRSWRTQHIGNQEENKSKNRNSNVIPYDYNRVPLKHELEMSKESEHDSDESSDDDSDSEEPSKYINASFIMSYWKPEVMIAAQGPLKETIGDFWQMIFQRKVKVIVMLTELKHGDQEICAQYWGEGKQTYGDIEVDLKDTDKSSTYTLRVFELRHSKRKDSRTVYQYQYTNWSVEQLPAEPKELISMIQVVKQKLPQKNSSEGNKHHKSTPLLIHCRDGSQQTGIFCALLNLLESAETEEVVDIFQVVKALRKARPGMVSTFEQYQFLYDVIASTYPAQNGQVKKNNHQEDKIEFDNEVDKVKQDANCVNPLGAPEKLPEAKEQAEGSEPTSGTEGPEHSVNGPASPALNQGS

B1: Anti-45RC Variant I (antibody, human IgG1, kappa, V domains shown)
VH: QVQLVESGGGLVKPGGSLRLSCAASGYTFTNYYIGWIRQAPGKGLEWIGDIFPGGDYANSNEKVKGRFTLSADTAKNSAYLQMNSLRAEDTAVYYCVRRNFDYWGQGTLVTVSS
VL: DIQLTQSPSFLSASVGDRVTITCSASSSVSYMHWFQQKPGKAPKLWIYNTSNLPSGVPSRFSGSGSGTEYTLTISSLQPEDFATYYCQQRSSYPLTFGGGTKVEIKR
notes: also called humanized ABIS-45RC variant I
B2: Anti-45RC Variant C (antibody, human IgG1, kappa, V domains shown)
VH: QVQLVQSGAEVKKPGASVKVSCKASGYTFTNYYIGWVRQAPGQGLEWIGDIFPGGDYANSNEKFKGRVTLTADTSISTAYMELSRLRSDDTVVYYCVRRNFDYWGQGTLVTVSS
VL: EIVLTQSPATLSLSPGERATLSCSASSSVSYMHWFQQKPGQAPRLWIYNTSNLPSGIPARFSGSGSGTDYTLTISSLEPEDFAVYYCQQRSSYPLTFGGGTKVEIKR
notes: also called humanized ABIS-45RC variant C
B3: Anti-45RC Variant B (antibody, human IgG1, kappa, V domains shown)
VH: B2 VH
VL: EIVLTQSPDFQSVTPKEKVTITCSASSSVSYMHWFQQKPDQSPKLWIYNTSNLPSGVPSRFSGSGSGTDYTLTINSLEAEDAATYYCQQRSSYPLTFGGGTKVEIKR
notes: also called humanized ABIS-45RC variant B
B4: Anti-45RC Variant D (antibody, human IgG1, kappa, V domains shown)
VH: EVQLVQSGAEVKKPGESLKISCKASGYTFTNYYIGWVRQMPGKGLEWIGDIFPGGDYANSNEKFKGQVTLSADKSISTAYLQLSSLKASDTAMYYCVRRNFDYWGQGTLVTVSS
VL: B1 VL
notes: also called humanized ABIS-45RC variant D
B5: Anti-45RC Variant H (antibody, human IgG1, kappa, V domains shown)
VH: B1 VH
VL: B2 VL
notes: also called humanized ABIS-45RC variant H

Legend:
human CD45RC [1] = target: T1, human CD45RC; assay: flow cytometry on T cells of human PBMC; biotin anti-human IgG + streptavidin PerCP-Cy5.5
human CD45RC [2] = target: T1, human CD45RC; assay: as above; remark: listed apart in the source

Binder	% of T cells in the CD45RC gate at 1 µg/mL (human CD45RC [1]) [%]	% of T cells in the CD45RC gate at 2 µg/mL (human CD45RC [1]) [%]	% of T cells in the CD45RC gate at 1 µg/mL (human CD45RC [2]) [%]	% of T cells in the CD45RC gate at 2 µg/mL (human CD45RC [2]) [%]
B1	49.7	48.9	–	–
B2	–	–	63.3	63.7
B3	–	–	43.9	32.7
B4	–	–	57.2	59.5
B5	29.5	13.2	–	–
